Consider eight molecules from patent US20160237156A1 (CALIFORNIA INSTITUTE FOR BIOMEDICAL RESEARCH, published 2016).

Assay [1] deals with T1, SNAP-tag-CXCR4 (Tag-lite labeled CXCR4 cells, Cisbio Bioassays) (UniProt P61073 1-352, Tag-lite label on the SNAP-tag).
T1 construct: whole, on cells; Bought labelled cells; also called Tag-lite CXCR4 receptor; labeled SNAP-tag-CXCR4; not shown: SNAP-tag of the bought Tag-lite cells
As to the kind of experiment: Tag-lite HTRF competition with 50 nM fluorescent SDF-1 on Tag-lite labeled CXCR4 cells. The procedure:
(§1) Briefly, 10⁶ Tag-lite labeled CXCR4 cells were thawed at 37° C., centrifuged for 5 min at 1200 g, and re-suspended in 2.7 ml 1×Tag-lite buffer after removal of supernatant.
On the technique in general: Time-resolved FRET reads energy transfer from a long-lived donor to a nearby acceptor.

In assay [2] the target is T1, SNAP-tag-CXCR4 (Tag-lite labeled CXCR4 …). As to the kind of experiment: Tag-lite HTRF competition with 50 nM fluorescent SDF-1, Cheng-Prusoff. The procedure: as §1
The next assay deals with CXCR4 (human, UniProt P61073 1-352). Put plainly: cell-based or functional assay.
CXCR4, sequence (P61073 whole entry): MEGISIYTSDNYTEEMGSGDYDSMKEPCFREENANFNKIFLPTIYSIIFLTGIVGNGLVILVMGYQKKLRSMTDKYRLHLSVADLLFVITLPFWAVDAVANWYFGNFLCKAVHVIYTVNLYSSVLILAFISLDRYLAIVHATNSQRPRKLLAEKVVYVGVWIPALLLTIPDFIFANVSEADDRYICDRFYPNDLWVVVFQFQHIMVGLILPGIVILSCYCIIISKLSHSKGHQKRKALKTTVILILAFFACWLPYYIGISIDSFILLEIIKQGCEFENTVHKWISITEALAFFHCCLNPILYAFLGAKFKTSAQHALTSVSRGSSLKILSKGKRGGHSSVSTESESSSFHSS
Assay [3] has as its target T2, Human neutrophil elastase (Elastin Products Company, Inc.) (human, UniProt P08246 30-247, limits assumed).
T2 sequence (looked up): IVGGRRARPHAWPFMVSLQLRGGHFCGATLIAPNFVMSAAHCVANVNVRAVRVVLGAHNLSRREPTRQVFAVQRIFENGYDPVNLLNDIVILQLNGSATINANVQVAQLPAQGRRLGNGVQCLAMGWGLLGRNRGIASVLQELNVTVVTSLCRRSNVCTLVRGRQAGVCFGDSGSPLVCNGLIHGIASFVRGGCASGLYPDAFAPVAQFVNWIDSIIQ
Put plainly: elastase inhibition assay with fluorogenic substrate MeOSuc-AAPV-AMC (Example 28); y axis read as residual activity.

T1 sequence (P61073 whole entry): as the sequence (P61073 whole entry) above

B1: trastuzumab-beta BCCX2 HC medium (antibody, human IgG1, kappa, V domains shown)
VH: EVQLVESGGGLVQPGGSLRLSCAASGFNIKDTYIHWVRQAPGKGLEWVARIYPTNGYTRYADSVKGRFTISADTSKNTAYLQMNSLRAEDTAVYYCSRETKKYRKCRGGRRWCYQKYNYEDYWGQGTLVTVSS
VL: not shown
notes: also called HMCX
On to B1, for which the IC50 in assay [1] stood at 113 nM. This molecule also gave a Ki in assay [2] of 25.1 nM.

B2: trastuzumab-beta BCCX2 HC long (antibody, human IgG1, kappa, V domains shown)
VH: EVQLVESGGGLVQPGGSLRLSCAASGFNIKDTYIHWVRQAPGKGLEWVARIYPTNGYTRYADSVKGRFTISADTSKNTAYLQMNSLRAEDTAVYYCSRETKKYQSYRKCRGGRRWCYQKSYTYNYEDYWGQGTLVTVSS
VL: not shown
notes: also called HLCX
With B2, in assay [1], the half-inhibitory concentration (IC50) came out at 9.36 nM. In assay [2], this molecule had an inhibitory constant (Ki) of 2.07 nM.

B3: BLV1H12-beta BCCX2 HC 4 IgG (antibody, V domains shown)
VH: ASGFSLSDKAVGWVRQAPGKALEWLGSIDETKKYQSYRKCRGGRRWCYQKSYTYNYETGYNPGLKSRLSITKDNSKSQVSLSVSSVTTEDSATYYCTSVHQGGGGSWHVDVWGQGLLVTVSS
VL: QAVLNQPSSVSGSLGQRVSITCSGSSSNVGNGYVSWYQLIPGSAPRTLIYGDTSRASGVPDRFSGSRSGNTATLTISSLQAEDEADYFCASAEDSSSNAVFGSGTTLTVLG
notes: Peptide grafted into CDRH2; also called bAb-AC4; BVL1H12-beta BCCX2 HC 4
Consider B3, for which, in assay [1], the 50% inhibitory concentration (IC50) was determined as 4.16 nM. In addition, in the assay with CXCR4, the “inhibition of SDF-1 induced migration of Ramos cells, EC50” value is 3.2 nM. In assay [2], this molecule had a Ki of 0.92 nM.

B4: BLV1H12-beta BCCX2 HC 3 IgG (antibody, V domains shown)
VH: QVQLRESGPSLVKPSQTLSLTCTASGFSLSDKAVGWVRQAPGKALEWLGSIDTGGNTGYNPGLKSRLSITKDNSKSQVSLSVSSVTTEDSATYYCTSVHQETKKYQSYRKCRGGNGRRWCYQKSYTYNYEWHVDVWGQGLLVTVSS
VL: B3 VL
notes: Bovine-human chimera with human IgG1 Fc; also called bAb-AC3
In assay [1], B4 registered an IC50 of 89.3 nM. In addition, the affinity in assay [2] corresponds to a Ki of 19.8 nM.

B5: BLV1H12-beta BCCX2 HC 2 IgG (antibody, V domains shown)
VH: QVQLRESGPSLVKPSQTLSLTCTASGFSLSDKAVGWVRQAPGKALEWLGSIDTGGNTGYNPGLKSRLSITKDNSKSQVSLSVSSVTTEDSATYYCTSVHQETKKYQSYRKCRGPRRWCYQKSYTYNYEWHVDVWGQGLLVTVSS
VL: B3 VL
notes: Bovine-human chimera with human IgG1 Fc; also called bAb-AC2
In assay [1], B5 showed an IC50 of 24.4 nM. Also, the inhibition constant (Ki) in assay [2] was determined as 5.39 nM.

B6: Human BVK-beta HEI HC 6 (Fab, V domains shown)
VH: QVQLQESGPGLVRPSQTLSLTCTVSGFSLTGYGVNWVRQPPGRGLEWIGMIWGDGNTDYNSALKSRVTMLKDTSKNQFSLRLSSVTAADTAVYYCTSVHQEMCTASIPPQCYEWHVDVWGQGLLVTVSS
VL: DIQMTQSPSSLSASVGDRVTITCRASGNIHNYLAWYQQKPGKAPKLLIYYTTTLADGVPSRFSGSGSGTDYTFTISSLQPEDIATYYCQHFWSTPRTFGQGTKVEIKR
notes: also called HEI fusion protein
In the case of B6, the binding result in assay [3] was “binds”.

B7: Human BVK-beta HEI HC 8 (Fab, V domains shown)
VH: QVQLQESGPGLVRPSQTLSLTCTVSGFSLTGYGVNWVRQPPGRGLEWIGMIWGDGNTDYNSALKSRVTMLKDTSKNQFSLRLSSVTAADTAVYYCTSVHQETKMCTASIPPQCYNYEWHVDVWGQGLLVTVSS
VL: B6 VL
notes: as for B6
With B7, in assay [3], the binding result is “binds”.

B8: Human BVK-beta HEI HC 9 (Fab, V domains shown)
VH: QVQLQESGPGLVRPSQTLSLTCTVSGFSLTGYGVNWVRQPPGRGLEWIGMIWGDGNTDYNSALKSRVTMLKDTSKNQFSLRLSSVTAADTAVYYCTSVHQETKKMCTASIPPQCYYNYEWHVDVWGQGLLVTVSS
VL: B6 VL
notes: as for B6
On to B8, for which the “IC50 (read off the curve)” value in assay [3] was ~40 nM.

As a reminder, the IC50 is the concentration at which inhibition is half-maximal. A high value points to lower potency. What is called Ki is the dissociation constant of the complex between target and ligand, obtained from inhibition or displacement. A higher Ki goes with a looser hold on the target.
